We go through one molecule from publication PMC7589338, “The strawberry transcription factor FaRAV1 positively regulates anthocyanin accumulation by activation of FaMYB10 and anthocyanin pathway genes”.

The target of this series is T1, FaRAV1 (Fragaria × ananassa, UniProt A0A3Q8TB28 1-301).
T1 sequence: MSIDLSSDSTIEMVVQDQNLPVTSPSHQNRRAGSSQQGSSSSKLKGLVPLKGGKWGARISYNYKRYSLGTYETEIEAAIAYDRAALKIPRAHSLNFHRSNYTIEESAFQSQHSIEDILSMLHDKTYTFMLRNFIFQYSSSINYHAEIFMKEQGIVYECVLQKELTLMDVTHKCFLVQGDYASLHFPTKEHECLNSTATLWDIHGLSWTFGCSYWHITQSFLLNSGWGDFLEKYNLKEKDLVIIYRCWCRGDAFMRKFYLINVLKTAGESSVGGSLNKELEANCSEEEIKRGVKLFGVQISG
Briefly: EMSA; 8 nM biotinylated probe; LightShift Chemiluminescent EMSA kit (Thermo), per manufacturer and Ge et al. 2017; 8 nM biotin probe; binding buffer, pH and temperature not stated. The note with it: protein: recombinant; tags: His (pET-32a; described as N-terminal FaRAV1-His fusion); label: 3'-biotin; blunt. In general terms: Mobility shift assays separate free from complexed probe on a gel.

B1: FaMYB10 promoter mutant probe (dsDNA)
DNA 1: AGGGTGGGGACTCGACAGTTTTTAGCTAACTTCCACATGCAATGGATCGAAAT
DNA 2: ATTTCGATCCATTGCATGTGGAAGTTAGCTAAAAACTGTCGAGTCCCCACCCT
In the case of B1, the binding result was “no binding”.
